Measurements taken from publication PMC6862599, “Molecular Cloning and Exploration of the Biochemical and Functional Analysis of Recombinant Glucose-6-Phosphate Dehydrogenase from Gluconoacetobacter diazotrophicus PAL5” (International Journal of Molecular Sciences, 2019).

Legend:
[1] = molecular target: glucose-6-phosphate dehydrogenase (G6PD) from Gluconacetobacter diazotrophicus PAL5 (Gluconacetobacter diazotrophicus PAL5); experiment: SEC; Sephacryl 200 (16/60) gel filtration column, 100 mM Tris-HCl pH 7.35, 0.01 M MgCl2, 0.3 mL/min, AKTA pure FPLC; calibrated with Bio-Rad gel filtration standard; oligomeric state of the native protein
[2] = substrate: O=P(O)(O)OC[C@H]1OC(O)[C@H](O)[C@@H](O)[C@@H]1O; experiment: purified protein; type: biochemical, Gluconacetobacter diazotrophicus; conditions: NADP+ fixed at 72 µM (~10-fold Km), G6P 0 to 2 mM
[3] = substrate: NC(=O)c1ccc[n+]([C@@H]2O[C@H](COP(=O)(O)OP(=O)(O)OC[C@H]3O[C@@H](n4cnc5c(N)ncnc54)[C@H](OP(=O)(O)O)[C@@H]3O)[C@@H](O)[C@H]2O)c1; experiment: purified protein; type: biochemical, Gluconacetobacter diazotrophicus; conditions: G6P fixed at 630 µM (~10-fold Km), NADP+ 0 to 250 µM

Molecule | stoichiometry N [1] | Km [2] [µM] | Km [3] [µM]
glucose-6-phosphate dehydrogenase (G6PD) from Gluconacetobacter diazotrophicus PAL5 (enzyme) | 4 | – | –
G6PD from GDI (Gluconacetobacter diazotrophicus PA1 5) (protein, full-length, N-terminal His6 tag removed by TEV protease, E. coli BL21(DE3)pLysS, 510 residues (ORF 1530 bp), 56,483 Da monomer, homotetramer 220 kDa) MDGIVASASSEIQGAGLQPRRAPPCTFVVFGGGGDLTKRLLVPAIYNLACAGLLDDGFSIVAVDWAELSDDILRAQFHEALQDFVAKRGTAAAVLRDDIWRWLNTRVSYLRGSFEDPATFERLGARIGSGNAVFYLAVAARFFGTIVDRLGESHLTDEVGETYRRVIVEKPFGHDLNSARELNIRLLRTLRERQIYRIDHYLGKETVQNIMALRFSNGFFEPLWNRQNIDHVQITAAETVGVEKRGRFYEGTGALRDMVPNHLMQLLAMTAMEAPVSFDADAVRDEKSKVLKAIHCTGPEDVVRGQYGGGVLGGTPVRGYRDEPDVAPASRTETYVAMKLAIDNWRWAGVPFYLRTGKRLAVRKTEIAIHFRRAPYALFRDTPVDRLTPNIMTIHIQPTEGVTLQFGAKIPGPTVRLGGVRMKFDYSEWFSEGPSTGYETLIYDCLTGDATLFQRADNIEAGWRAVQPALDWGERTEAAPLCPYAAGSAGPIEADALLARDGRQWQDLAE | – | 63 | 7.2
